According to the supplement of paper PMC10567573:

B1: RIPK4 (parent)
chain: VSVNAQTLDGRTPLHLAAQRGHYR

Variants of: B1
Assay: protein stability index of a GFP-peptide fusion (GPS, HEK-293T) (PSI 1-6); higher = more stable
Conditions: c terminus: a fixed tail appended
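Note: lentivirally expressed fusions sorted by FACS into six bins by GFP to DsRed ratio, PSI derived from sequencing read proportions per bin multiplied by bin number.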

Protein stability index of substitutions, site by site:
A17: P 3.67; D 3.33; S 3.34; I 2.45; W 2.45; Y 2.54; K 3.41; L 3.02; T 3.45; N 3.38; R 3.11; M 3.31; F 2.26; C 3.15; E 3.22; H 3.27; Q 3.36; V 3.35; G 3.51
T12: I 3.1; S 3.35; L 2.89; G 3.05; C 2.81; D 3.68; P 3.54; V 3.13; W 2.82; M 3.19; K 3.72; F 2.61; A 3.48; H 2.68; R 3.23; N 2.96; Y 2.4; E 3.58; Q 3.57
G21: Q 3.35; S 2.66; K 3.33; R 3.47; A 2.77; M 2.68; P 3.49; T 2.88; D 2.86; N 2.88; C 2.44; L 2.94; I 2.24; E 3.58; W 2.05; H 3.26; Y 2.81; V 2.93; F 2.34
H15: D 3.93; V 3.2; A 3.79; C 3.01; W 2.62; Y 2.56; E 3.49; M 2.78; G 3.08; I 2.79; S 3.74; R 3.89; F 2.58; T 3.73; P 3.94; L 3.24; Q 4.11; N 3.64; K 3.24
Y23: L 3.51; V 4; G 4.25; F 2.98; M 4.03; H 3.42; N 4.17; C 3.43; D 4.49; Q 3.96; S 3.83; K 4.12; W 3.07; I 3.39; R 4.19; A 3.92; T 4.12; P 4.11; E 4.39
Q6: T 3.44; V 2.68; Y 2.59; W 2.49; R 3.02; S 3.78; P 3.96
R24: C 2.2; E 2.87; A 2.81; D 3.3
R11: V 2.97; F 2.65; Q 3.62; N 3.42; A 3.5; I 2.73; T 2.71; W 2.85; H 3.11; D 3.31; E 3.78; M 2.77; G 2.99; Y 2.98; C 2.91; K 3.51; L 2.9; S 3.12; P 3.38
L16: P 3.73; A 3.82; H 3.28; R 3.96; I 3.42; G 3.45; N 3.97; F 3.11; M 3.34; Y 3.45; Q 3.83; S 4.04; T 3.64; K 3.88; E 4.29; W 3.09; C 3.19; D 3.8; V 3.5
L14: H 3.96; D 3.62; V 3.4; G 3.52; Q 3.75; N 3.92; E 4.47; I 3.39; S 3.83; M 3.26; K 3.96; R 3.7; P 4; C 1.96; F 3.1; Y 3.21; A 4.07; T 3.5; W 2.88
R20: A 3.02; P 2.95; I 2.58; T 2.85; V 2.85; H 2.53; N 2.71; L 2.13; E 3.43; S 2.65; W 2.5; M 2.29; F 2.14; C 2.69; K 3; G 2.96; D 3.62; Q 3.12; Y 2.41
T7: M 2.98; R 3.32; G 3.35; E 3.94; N 3.64; P 3.36; W 2.32; L 3.2; D 3.77; C 2.8; I 2.63; S 3.29; A 3.34; K 3.36; Y 2.97; F 2.11; V 3.23; H 3.12; Q 4.04
A18: S 3.38; H 3.13; R 3.32; C 2.61; F 1.89; P 3.21; L 2.64; M 2.42; N 3.46; W 2.09; E 3.13; Y 2.19; V 2.97; T 3.08; K 2.58; D 3.31; I 2.75; G 3.5; Q 3.29
H22: K 3.89; M 2.96; I 2.83; A 3.3; N 3.48; V 3.79; T 3.57; F 2.96; W 2.23; C 2.98; Q 3.56; Y 2.47; L 2.69; P 2.89; G 4.53; D 3.23; S 3.29; R 4.29; E 3.27
Q19: T 3.58; E 3.18; S 3.08; W 2.12; H 3.27; A 3.44; P 2.67; L 2.52; D 3.12; G 3.53; K 3.95; V 2.28; N 3.41; C 2.97; I 2.59; Y 2.63; F 1.94; M 2.88; R 4.04
G10: D 3.69; F 2.4; Q 3.6; M 3.12; R 3.55; P 3.66; N 3.29; C 3.05; I 3.38; A 3.2; W 2.48; E 3.59; L 2.81; V 3.32; S 3.57; H 3; K 3.09; T 3.21; Y 2.66
P13: R 3.1; Q 3.15; M 2.42; D 3.56; C 2.22; Y 1.93; I 2.17; G 2.94; W 1.75; E 3.26; V 2.84; A 3.33; K 2.78; H 2.9; L 2.25; F 2.34; N 3.38; S 3.3; T 2.92
L8: Y 3.07; D 3.74; M 3.75; C 3.33; E 4.33; V 3.92; A 3.92; H 3.73; W 3.11; I 3.58; R 3.37; T 3.77; F 3.29; N 3.94; S 3.5; Q 4.05; K 3.58; G 4.26; P 3.95
D9: P 3.49; A 3.09; M 2.62; K 2.79; H 3.15; V 2.9; F 2.25; Y 2.48; I 2.33; G 3.02; Q 2.92; C 3.14; W 2.35; R 3.31; N 3.33; E 3.78; T 3.22; S 3.04; L 2.81
